Laboratory results reported in the supplement of paper PMC10567573.
± gives the standard deviation.

Assay: protein stability index of a GFP-peptide fusion (GPS, HEK-293T) (PSI 1-6); higher = more stable
[1] = treatment: DMSO, c terminus: a fixed tail appended
[2] = treatment: MLN4924 1 uM, 8 h, c terminus: a fixed tail appended
[3] = treatment: DMSO, c terminus: native
[4] = treatment: MLN4924 1 uM, 8 h, c terminus: native
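Also: 24-mer peptide tiles fused after GFP, lentivirally expressed, FACS-sorted into six equal bins by GFP/DsRed ratio, decoded by Illumina sequencing, PSI is the read-weighted mean bin number.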

Sequence	protein stability index [1]	protein stability index [2]	protein stability index [3]	protein stability index [4]
PLNCAPCPRRSEPVVQCQYPSGAE [IRX6]	3.93 ± 0.14	3.94 ± 0.12	–	–
ENAELESRIQEWYEFQIPYICPDY [KRT36]	2.77 ± 0.46	2.9 ± 0.44	–	–
KLKNLRRKQRRRERWLQKQGKYSG [RNF180]	3.83 ± 0.33	3.93 ± 0.4	–	–
DYPVQVAPLSNGLCCAFSTDGSVL [WSB1]	2.66 ± 0.27	2.96 ± 0.32	–	–
SVGTYIIDLLTFLTGQKAVKVHGL [GFOD1]	3.23 ± 0.42	3.32 ± 0.54	–	–
AGISRSPTICMAYLMKTKQFRLKE [DUSP5]	2.21 ± 0.3	2.13 ± 0.24	–	–
SWLTRRAIRPENRAPGAGLGQDRQ [EMD]	3.98 ± 0.27	4.05 ± 0.19	–	–
CIGQRRFHTMDELVEHYKKAPIFT [NCK2]	2.54 ± 0.2	2.65 ± 0.38	–	–
LERQLQAEFIESGQYRANEGTSSI [TAF7L]	4.7 ± 0.2	4.66 ± 0.12	–	–
RAQEREQIKALNNKFASFIDKVRF [KRT71]	2.1 ± 0.11	2.2 ± 0.3	–	–
MPTGPPEDRLSLKFLPSSEEDNDD [DRICH1]	5.47 ± 0.2	5.59 ± 0.15	–	–
PICVQIPWDKNPEALAKWAEGRTG [CRY1]	3.51 ± 0.35	3.6 ± 0.24	–	–
EHGATLAVIDSEKDMNFLKRYAGR [CD69]	3.84 ± 0.34	3.95 ± 0.27	–	–
LGDPPPLLTLPRPPLSGALASITE [HDAC6]	4.33 ± 0.38	4.41 ± 0.32	–	–
YSSQLSQVQSLITNVESQLAEIRC [KRT34]	3.07 ± 0.21	3.24 ± 0.24	–	–
TIMQAVSQIRLNREHKETCEMDWS [TEKT4]	2.3 ± 0.27	2.44 ± 0.21	–	–
LQMEVCRLKKEEEDRIVTQNRVFA [CEP70]	3.98 ± 0.31	4.01 ± 0.055	–	–
DIVEFVCKSGYHPTKSHSFRAMCQ [CFHR2]	2.49 ± 0.7	2.09 ± 0.18	–	–
ALCMLAQSSPSFAEKCLDFLVDMF [INTS4]	1.86 ± 0.1	2.35 ± 0.064	–	–
SGEFGSVFKCVKRLDGCIYAIKRS [WEE1]	2.31 ± 0.58	2.65 ± 0.12	–	–
VRFDGYVIDGATALWCAAGAGHFE [FEM1B]	2.91 ± 0.6	2.92 ± 0.64	–	–
SGSESPSDSGKDLPEPSKRGPPHG [MYCL]	5.4 ± 0.24	5.32 ± 0.12	–	–
KGDSTIRELKAKLSGVEEELQRTK [SASS6]	4.86 ± 0.32	4.58 ± 0.21	–	–

Sequence	protein stability index [1]	protein stability index [2]	protein stability index [3]	protein stability index [4]
SLIEDSQALHKRPKLDSEYYCFG [LURAP1L]	–	–	2.57 ± 0.4	3.11 ± 0.45
YHPVKIGDLFNGRYHVIRKLGWGH [SRPK2]	2.79 ± 0.55	2.24 ± 0.22	–	–
EAAGGDHETESTSDKETDIDDRYG [CDS1]	5.6 ± 0.09	5.62 ± 0.22	–	–
LSWFILHARYRVIHFIAVAVCLLG [SLC35F2]	2.49 ± 0.12	2.83 ± 0.91	–	–
VASAPLQPPVPSLSEVKPPPPPPP [TRADD]	5.02 ± 0.15	4.71 ± 0.34	–	–
ETRVTSGSMEALNLKQLRKRGSIP [PPFIA4]	4.6 ± 0.07	4.75 ± 0.22	–	–
PWSLFDVLVEKYGWPHEDAAQFTD [SRPK2]	2.61 ± 0.28	2.88 ± 0.51	–	–
DGMLYILGGEDGEKELISMECYDI [GAN]	2.05 ± 0.18	2.26 ± 0.42	–	–
ADGIEVSYNACGVLSHIMFDGPEA [ZER1]	2.93 ± 0.28	2.94 ± 0.27	–	–
DNWDEKKLEEVVNKKHGEAEKKKP [ZC3H15]	5.48 ± 0.48	5.75 ± 0.25	–	–
INSDTGVLYALRSFDYEQFHELQM [PCDHGA10]	2.2 ± 0.2	2.35 ± 0.29	–	–
IASIGRHRYIAYMANQEAAIQAFL [IQUB]	2.39 ± 0.73	2.17 ± 0.36	–	–
NCSDFLESKGCFANTTPSGKSVSS [SPATS1]	4.15 ± 0.2	4.35 ± 0.17	–	–
ARWRRLRLQQLRRLRGLLRVLRGR [FBXO33]	3.52 ± 0.39	3.95 ± 0.65	–	–
TELLAERFYYQALSVAPQIGMPFN [SMG5]	2.21 ± 0.34	2.16 ± 0.17	–	–
SHLLVAEPEKIYAMPDPTVPDSDI [ESRRG]	5.04 ± 0.081	5.08 ± 0.13	–	–
DKEGHLVCRIGDWLQERYEIVGNL [CLK3]	2.8 ± 0.56	2.89 ± 0.47	–	–
SSPGNNNGTSIEDGQIPEIIFYT [BTBD1]	–	–	3.14 ± 0.46	3.44 ± 0.56
SLRFNGRVLFIKDVIGDEICCWSF [KCTD10]	2.65 ± 0.49	2.42 ± 0.45	–	–
FSRAGISEAQLTDAETSKLIYDFI [WAS]	2.57 ± 0.2	2.95 ± 0.29	–	–
RGPRMCRFIRERDRAVNDYPSLYY [CDC25B]	2.17 ± 0.27	2.12 ± 0.39	–	–
AQKISKGADPKSVVCAFFKQGQCT [ZC3H15]	3.32 ± 0.34	3.31 ± 0.26	–	–
DPANCDYVIVSGAQRKEERWDMAD [YJU2B]	4.74 ± 0.3	4.63 ± 0.16	–	–

Sequence	protein stability index [1]	protein stability index [2]	protein stability index [3]	protein stability index [4]
EEMEEEEEEEEEEDEDDDSADMDE [FBXO3]	5.57 ± 0.15	5.59 ± 0.087	–	–
MEGDGGTPWALALLRTFDAGEFTG [RIPK4]	2.11 ± 0.16	–	–	–
HKPKNSEELYKEIDGVATTRYSVA [PTPRD]	4.43 ± 0.17	4.66 ± 0.21	–	–
LAIDAIHQLGFIHRDIKPDNLLLD [STK38L]	2.23 ± 0.35	2.04 ± 0.31	–	–
HLADLVSYSIQKVIGFAKMIPGFR [VDR]	4.2 ± 0.43	4.18 ± 0.25	–	–
GGGGGGLPISTVREVALLRRLEAF [CDK4]	3.19 ± 0.3	3.23 ± 0.34	–	–
AQVLLAMHANVEDRGIKGDITPLM [ANKRD17]	2.99 ± 0.093	3.04 ± 0.13	–	–
ERRQTLNLISLLALRVLAEQNIIP [TENT5C]	2.26 ± 0.88	2.15 ± 0.24	–	–
IYQYVQNSMAPHPARDYVVLRTWR [DLC1]	1.93 ± 0.23	2.03 ± 0.37	–	–
ESIDFDQGELADQDVDPVHNLIEQ [FBXO33]	5.51 ± 0.16	5.22 ± 0.26	–	–
KAVANMQGEMDRKCKQVKEKCKEE [ZMYND11]	5.14 ± 0.31	5.31 ± 0.3	–	–
MAAEIQPKPLTRKPILLQRMEGSQ [WDFY2]	4.05 ± 0.27	3.8 ± 0.38	–	–
EELAYLKKNHEEEMKEFSSQLAGQ [KRT15]	5.22 ± 0.41	5.05 ± 0.28	–	–
ELQQELSLKDQERVAEVSRVRVEL [LRRC45]	3.5 ± 0.17	3.78 ± 0.24	–	–
CSSPGVQACSLPASCCIDPREDGA [TSPAN10]	4.687 ± 0.023	4.6 ± 0.1	–	–
LRLSCMERKKVQIRSMDPSALASD [DCAF4]	2.99 ± 0.31	3.48 ± 0.3	–	–
ILVVTVQLILFGLSNQLAVTFREE [MCOLN1]	3.02 ± 0.39	3.05 ± 0.23	–	–
MNQTCCPQYTIRCRPLQFQPSKSH [ATE1]	2.06 ± 0.27	2.1 ± 0.25	–	–
FLHPDLGVGGAERLVLDAALALQA [ALG2]	2.32 ± 0.43	2.27 ± 0.23	–	–
SKDNMRTRIMIGLTLVFFVQITGQ [SLC2A12]	2.55 ± 0.6	3.4 ± 0.17	–	–
DKDDEEKPKIEDVGSDEEDDSGKD [HSP90AB1]	5.57 ± 0.34	5.54 ± 0.062	–	–
FHELQMQVTASDSGDPPLSSNVSL [PCDHGA10]	2.93 ± 0.49	3.38 ± 0.54	–	–
SFMMGQGGEAAHHTRSPYSTFYPP [NEUROD6]	2.66 ± 0.39	2.84 ± 0.25	–	–

Sequence	protein stability index [1]	protein stability index [2]	protein stability index [3]	protein stability index [4]
SDYISEFRFAPNHTKELEDKVIEL [EPB41L3]	2.83 ± 0.5	3.44 ± 0.49	–	–
AAGQRSRPSTYYELLGVHPGASTE [DNAJC4]	3.58 ± 0.32	3.71 ± 0.23	–	–
NWGQDPGVSANASKAWHQKSHFQN [PBXIP1]	2.94 ± 0.5	3.43 ± 0.32	–	–
LHDRGAQVIHPQEFRRWRDTGVAF [DNAAF3]	2.83 ± 0.2	2.99 ± 0.38	–	–
LRQEMVNLRATDVRLMRQLLVINE [LURAP1L]	2.35 ± 0.081	2.48 ± 0.34	–	–
LRLADEFGVAVVITNQVVAQVDGA [RAD51]	2.31 ± 0.52	2.1 ± 0.39	–	–
DKERAVLLQRRKRENMSDGDTSAT [KMT2E]	5.27 ± 0.062	5.39 ± 0.19	–	–
DCLQFYVNSTLKELRRLFLVQDLV [RTN1]	2.99 ± 0.61	2.81 ± 0.76	–	–
EERLKLSPSPSSRVTVSRASSSRS [LMNB1]	4.94 ± 0.15	5.03 ± 0.25	–	–
ELNAIMNKNSTDVKGCSMYVALFP [DCTD]	2.71 ± 0.26	2.35 ± 0.71	–	–
PEGIQKVAKCLIGVNYPKPMVNHA [CRY1]	2.46 ± 0.18	2.87 ± 0.23	–	–
FRIIDSDHSGFISLDEFRQTWKLF [PPEF2]	2.97 ± 1	2.37 ± 0.48	–	–
RKADFKAGKALVISGREVFEFRPE [ZC3H15]	3.11 ± 0.25	3.38 ± 0.41	–	–
DPLSLLDDSKFPIEDTPLVPVSFI [PCDHGA10]	2.85 ± 0.49	2.97 ± 0.3	–	–
SHGYDMSTFIRRYSRYLNEKAFSY [SNAP91]	2.17 ± 0.24	2.3 ± 0.52	–	–
LKKDKKKEEKEDEISLEDLIERER [ZC3H15]	5.47 ± 0.41	5.51 ± 0.13	–	–
PGEVVPSGESGLRRRGSDPASGEV [TMEM40]	5.52 ± 0.32	5.43 ± 0.23	–	–
EKRSRGQVLFDKVCEHLNLLEKDY [EPB41L3]	2.87 ± 0.46	3.01 ± 0.62	–	–
EAQTSGKERLLLSAAVPAGQTYVD [CHIT1]	4.15 ± 0.41	4.3 ± 0.26	–	–
VKMFYSFQDKRNLYLIMEFLPGGD [STK38L]	3.11 ± 0.85	3.29 ± 0.4	–	–
